Laboratory results from patent publication US20160289339A1 (IMMUNWORK, published 2016).

How the values were obtained:
[1] = biological target: T1, mα1.Fc recombinant protein (human, UniProt P01876 103-333); assay: ELISA screening of hybridoma culture medium
T1 construct: leader/His tag/linker of the vector as for the other constructs
Method: Fifty microgram of the chimeric protein was used to immunize each Balb/c mouse subcutaneously for 4-5 times in a two-week interval. Three days before cell fusion, ten microgram of the chimeric protein was injected into each mouse intravenously. The splenocytes isolated from immunized mice were fused with mouse myeloma cells FO by using polyethylene glycol 1500 (Roche). After fusion procedures, cells were grown in HAT selection medium for 10-12 days and the cultured medium was transferred for ELISA screening (detailed in the next section). […] Hybridoma clones which produce antibodies reacting to mα1.FcL-LZ and not reacting to mα1.Fc were identified as candidates by using horseradish peroxidase (HRP)-conjugated goat anti-mouse IgG.Fc antibodies (Jackson ImmunoResearch) in ELISA. To further test the binding of hybridoma candidates towards mIgA-expressing B cells, 2×10⁵ DAKIKI cells were incubated with 100 μl of cultured medium on ice for 30 min. Cells were washed with staining buffers [PBS with 2% fetal bovine serum (FBS, Invitrogen) and 0.05% sodium azide] and incubated with FITC-labeled rabbit F(ab)′₂ anti-mouse IgG antibodies (AbD Serotech) 1:400 diluted in staining buffers on ice for 30 min. After washing, cells were resuspended in 200 μl of staining buffer and subjected to flow cytometric analyses. […]

[2] = biological target: T2, synthetic polypeptide maFa, N-terminal part of migis-αL (human); assay: ELISA on coated synthetic polypeptides, 10 µg/ml
T2 construct: also called the N-terminal polypeptide
T2 peptide: GSCSVADWQMPPPYVVLD
Method: (§1) Anti-migis-α mAbs 8G7 (Igγ2b, κ) and 29C11 (Igγ1, κ) were purified from hybridoma culturing medium by using Protein A Sepharose CL-4B medium (GE Healthcare). Purified mAbs were stored in PBS at the concentration of 1 mg/ml. A mouse anti-human IgA1.Fc mAb 3C10 (Igγ1, Abcam) and mouse total IgG (Sigma-Aldrich) were used as positive and negative controls, respectively. Various migis-α-containing recombinant proteins and several irrelevant proteins were tested in ELISA. Proteins were coated at 1 μg/ml in 0.05M carbonate/bicarbonate buffers in ELISA plates at 4° C. for overnight. Plates were washed with PBST (PBS with 0.05% Tween® 20) and blocked by PBS/BSA (PBS with 1% BSA) at room temperature for 1 h. After washing with PBST, mAbs at 1 μg/ml in PBS/BSA were added into plates and incubated at room temperature for 1 hr. Plates were washed with PBST and then HRP-conjugated goat anti-mouse IgG.Fc antibodies 1:10,000 diluted in PBS/BSA were adding into plates. After incubation at room temperature for 1 hr and washing with PBST, Tetramethylbenzidine substrates (Clinical Scientific Products) were added into plates for colorimetric measurement.
Synthetic migis-αL polypeptides were further used to study binding epitopes of anti-migis-α mAbs by ELISA. […]

[3] = biological target: T3, mα1.FcL-456S-LZ recombinant protein (human); assay: ELISA, serial dilution of mAb on coated mα1.FcL-456S-LZ
T3 construct: also called mα1.FcL-LZ
T3 chain: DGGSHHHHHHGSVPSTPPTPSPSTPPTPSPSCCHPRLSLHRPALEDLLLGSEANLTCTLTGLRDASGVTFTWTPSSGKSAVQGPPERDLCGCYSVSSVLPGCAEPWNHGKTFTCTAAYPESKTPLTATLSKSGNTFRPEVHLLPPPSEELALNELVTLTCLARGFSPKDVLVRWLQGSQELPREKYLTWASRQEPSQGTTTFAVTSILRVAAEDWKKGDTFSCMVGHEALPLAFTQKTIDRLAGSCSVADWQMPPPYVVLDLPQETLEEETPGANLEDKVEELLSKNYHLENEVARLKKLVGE
Method: as §1
The binding curves were analyzed by the software Prism® (GraphPad) and the equation used for calculation was shown below.

[4] = biological target: T4, membrane-bound IgA (mIgA) on DAKIKI cells (human, UniProt P01876 1-398); assay: flow cytometry on DAKIKI cells, 10 µg/ml against 1 µg/ml
T4 construct: whole, on cells; also called mIgA-expressing B cells
Method: (§2) For flow cytometric assays in the examples, 3C10 was used as a positive control of detecting mIgA expression and a mouse anti-human mIgE mAb 4B12 (Igγ1, κ) was served as a negative control. To perform the cell staining, 10⁶ cells were washed and incubated with mAbs in 100 μl of staining buffers on ice for 30 min. Cells were subsequently washed with staining buffers and incubated with FITC-labeled rabbit F(ab)′₂ anti-mouse IgG antibodies […] 1:400 diluted in 100 μl staining buffers on ice for 30 min. After washing, cells were resuspended in 400 μl of staining buffers and subjected to flow cytometric analyses in a FACSCanto II (BD Biosciences). […] At the low concentrations (1 μg/ml) staining signals of 29C11 towards these three mIgA-expressing B cells are undetectable.

[5] = biological target: T5, mα1.FcS expressed on Ramos cells (human, UniProt P01876 103-398); assay: flow cytometry on Ramos/mα1.FcS cells, 1 µg/ml
T5 construct: also called Ramos/mα1.FcS
Method: as §2

[6] = biological target: T6, synthetic polypeptide maF1-2 (human); assay: ELISA on coated synthetic polypeptides
T6 peptide: GSCSVADWQMPP
Method: as §1
(§3) Synthetic migis-αL polypeptides were further used to study binding epitopes of anti-migis-α mAbs by ELISA. Polypeptides maFL (SEQ ID NO:9), maFa (SEQ ID NO:10), maFb (SEQ ID NO:11), and maFc (SEQ ID NO:12) are fragments that represent the full length, the N-terminal part, the middle part, and the C-terminal part of migis-αL sequences (FIG. 3A). Polypeptides maF1-2 (SEQ ID NO:13), maF1-3 (SEQ ID NO:14), maF2 (SEQ ID NO:15), and maF2-1 (SEQ ID NO:16) were designed to test shorter sequences for binding activity of anti-migis-α mAbs. Polypeptides at 10 μg/ml were coated in micro-well plates for reacting and ELISA procedures were followed as described above. […] In contrast, 29C11 is capable of binding to both the N-terminal and the middle part of migis-αL sequences, and also reacting to short fragments of the N-terminal polypeptides. (FIGS. 3B-C).

[7] = biological target: T7, synthetic polypeptide maF1-3 (human); assay: ELISA on coated synthetic polypeptides
T7 peptide: CSVADWQMPPPY
Method: as §1, §3

[8] = biological target: T8, synthetic polypeptide maF2 (human); assay: ELISA on coated synthetic polypeptides
T8 peptide: VADWQMPPPYVV
Method: as §1, §3

[9] = biological target: T9, synthetic polypeptide maF2-1 (human); assay: ELISA on coated synthetic polypeptides
T9 peptide: DWQMPPPYVVLD
Method: as §1, §3

[10] = biological target: mα1.FcL-456C expressed on Ramos cells (human, UniProt P01876 103-398); assay: flow cytometry on Ramos/mα1.FcL-456S (so in the source) cells, 1 µg/ml
Method: as §2

T4 sequence (P01876 whole entry): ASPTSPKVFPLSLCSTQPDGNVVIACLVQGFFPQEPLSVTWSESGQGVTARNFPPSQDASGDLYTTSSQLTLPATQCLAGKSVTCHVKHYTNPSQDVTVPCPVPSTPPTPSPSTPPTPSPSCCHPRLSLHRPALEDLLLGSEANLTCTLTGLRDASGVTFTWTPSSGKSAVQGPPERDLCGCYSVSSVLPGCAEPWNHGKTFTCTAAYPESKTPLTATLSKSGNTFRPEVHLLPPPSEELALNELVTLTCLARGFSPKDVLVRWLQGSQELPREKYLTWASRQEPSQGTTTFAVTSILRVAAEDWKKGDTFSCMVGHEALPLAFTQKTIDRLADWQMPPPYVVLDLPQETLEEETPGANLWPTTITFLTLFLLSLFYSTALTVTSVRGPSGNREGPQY

B1: anti-migis-α mAb 8G7 (antibody, V domains shown)
VH: EVQLQESGPSLVKPSQTLSLTCSVTGDSITNGYWNWIRKFPGNKLEYMGYISYSGSTYYNPSLKSRIFITRDTSKNQYYLQLNSVTTEDTAIYYCARWLGGRAYWGQGTTLIVSS
VL: DIVMTQSQKFMSTSVGDRVSVTCKASQNVGTNVVWYQQKPGQSPKTLIYSASRRFSGVPDRFTGSGSGTDFTLTISNVQSEDLAEYFCQQYNSYPLTFGAGTKLELK
notes: also called 8G7 mAb
- binding result [1]: no binding
- binding result [2]: binds
- fold lower concentration at half the maximum binding than 29C11 [3]: ~6 fold
- fold of the increment of MFI (high minus low concentration, over background) against that of 29C11 [4]: 12.5 fold
- fold of MFI over background against that of 29C11, (MFI8G7-MFIbackground)/(MFI29C11-MFIbackground) [5]: 10.4 fold
- binding result [6]: no binding (tested: 10 µg/ml peptide coated)
- binding result [7]: no binding (tested: 10 µg/ml peptide coated)
- binding result [8]: no binding (tested: 10 µg/ml peptide coated)
- binding result [9]: no binding (tested: 10 µg/ml peptide coated)
- fold of MFI over background against that of 29C11, (MFI8G7-MFIbackground)/(MFI29C11-MFIbackground) [10]: 13.5 fold
